Measured values published in US20230212304A1.
pKd: −log10 of the molar value.

Key:
[1] = biological target: cynomolgus monkey CTLA4-his protein (Acro biosystems, Cat#CT4-C5227) (cynomolgus monkey) (UniProt G7PL88); experiment: SPR, Biacore; antibody captured on anti-human IgG CM5 chip, CTLA4-his as analyte
[2] = biological target: cynomolgus monkey CTLA4-his protein (Acro biosystems, Cat#CT4-C5227) (cynomolgus monkey) (UniProt G7PL88); experiment: SPR, Biacore T200; benchmark on Protein G chip, CTLA4-his as analyte

Sequence of cynomolgus monkey CTLA4-his protein (Acro biosystems, Cat#CT4-C5227) (cynomolgus monkey) (G7PL88 entry or part of it): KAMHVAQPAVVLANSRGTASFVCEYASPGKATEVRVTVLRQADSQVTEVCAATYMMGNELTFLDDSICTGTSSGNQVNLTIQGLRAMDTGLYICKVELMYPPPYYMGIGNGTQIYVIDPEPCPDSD

Substance: Yervoy® (Bristol-Myers Squibb Co, Cat# NDC: 0003-2327-11) (antibody)
- pKd [1]: 8.66
- pKd [2]: 8.53
